Data published in patent US20250295772A1 (ABATA THERAPEUTICS, published 2025).

B1: TCR-Q (TCR, V domains shown)
V domain 1: KDQVFQPSTVASSEGAVVEIFCNHSVSNAYNFFWYLHFPGCAPRLLVKGSKPSQQGRYNMTYERFSSSLLILQVREADAAVYYCAVGDTGGFKTIFGAGTRLFVKA
V domain 2: DSGVTQTPKHLITATGQRVTLRCSPRSGDLSVYWYQQSLDQGLQFLIHYYNGEERAKGNILERFSAQQFPDLHSELNLSSLELGDSALYFCASSEIAGFSTDTQYFGPGTRLTVLE
B2: TCR-L (TCR, V domains shown)
V domain 1: RKEVEQDPGPFNVPEGATVAFNCTYSNSASQSFFWYRQDCRKEPKLLMSVYSSGNEDGRFTAQLNRASQYISLLIRDSKLSDSATYLCVVLRNSGNTPLVFGKGTRLSVIA
V domain 2: DAGITQSPRHKVTETGTPVTLRCHQTENHRYMYWYRQDPGHGLRLIHYSYGVKDTDKGEVSDGYSVSRSKTEDFLLTLESATSSQTSVYFCAIKPGQGNRGEQFFGPGTRLTVLE
B3: TCR-O (TCR, V domains shown)
V domain 1: KQEVTQIPAALSVPEGENLVLNCSFTDSAIYNLQWFRQDPGKGLTSLLLIQSSQREQTSGRLNASLDKSSGRSTLYIAASQPGDSATYLCAVTGMDSSYKLIFGSGTRLLVRP
V domain 2: DAEITQSPRHKITETGRQVTLACHQTWNHNNMFWYRQDLGHGLRLIHYSYGVHDTNKGEVSDGYSVSRSNTEDLPLTLESAASSQTSVYFCASSEGGSWGYTFGSGTRLTVVE
B4: TCR-M (TCR, V domains shown)
V domain 1: DQQVKQNSPSLSVQEGRISILNCDYTNSMFDYFLWYKKYPAEGPTFLISISSIKDKNEDGRFTVFLNKSAKHLSLHIVPSQPGDSAVYFCAASAKTSGSRLTFGEGTQLTVNP
V domain 2: NAGVTQTPKFRILKIGQSMTLQCTQDMNHNYMYWYRQDPGMGLKLIYYSVGAGITDKGEVPNGYNVSRSTTEDFPLRLELAAPSQTSVYFCASRGGIQETQYFGPGTRLLVLE
B5: TCR-S DS (TCR, V domains shown)
V domain 1: QKEVEQDPGPLSVPEGAIVSLNCTYSNSAFQYFMWYRQYSRKGPELLMYTYSSGNKEDGRFTAQVDKSSKYISLFIRDSQPSDSATYLCAMSEYSGYALNFGKGTSLLVTP
V domain 2: GITQSPKYLFRKEGQNVTLSCEQNLNHDAMYWYRQDPGQGLRLIYYSQIVNDFQKGDIAEGYSVSREKKESFPLTVTSAQKNPTAFYLCASSNRDEQYFGPGTRLTVTE
B6: TCR-N (TCR, V domains shown)
V domain 1: GESVGLHLPTLSVQEGDNSIINCAYSNSASDYFIWYKQESGKGPQFIIDIRSNMDKRQGQRVTVLLNKTVKHLSLQIAATQPGDSAVYFCAEISKTSYDKVIFGPGTSLSVIP
V domain 2: NAGVTQTPKFRILKIGQSMTLQCAQDMNHNYMYWYRQDPGMGLKLIYYSVGAGITDKGEVPNGYNVSRSTTEDFPLRLELAAPSQTSVYFCASSYGPGGRNTIYFGEGSWLTVVE

Target: T1, preproinsulin 73-90 peptide complexed with HLA-DRB1*04:01 (human, UniProt P01903 26-254; P01911 30-266)
T1 MHC II alpha: not shown
T1 MHC II beta: not shown
T1 peptide: GAGSLQPLALEGSLQKRG
Experiment: cell-based or functional assay

Row | Binder | EC50 (nM) of CD69 upregulation, conventional CD4+ T cells + BLS-DRB1*04:01 cells, peptide titrated [nM]
1 | B1 | 409
2 | B2 | 498
3 | B3 | 6.34
4 | B4 | 244
5 | B5 | 10000
6 | B6 | 28.2
